Source: the RNAGym collection of RNA variant scans (doi:10.7554/elife.80360)

B1: Hairpin Ribozyme (parent)
chain: GUCCUCUUUCACGUGCGCGUGAAAGAGAGAAGUGAACCAGAGAAACACACGUUGUGGUAUAUUACCUGGUA

Variants of: B1
Experiment: self-cleavage, relative activity (ratio to wild type); higher = more cleavage; co-transcriptional

Variant	self-cleavage
GUCCUCUUUCACGUGCGCGUGAAAGAGAGAAGUGAACCAGAGAAACACACGGUGUGGUAUAUUACCAGGUA [U52G U67A]	0.212
GUCCUCUUUCACGUGCGCGUGAAAGAGAGAAGUGAACCAGAGAAACACACGUCGAGGUAUAUUACCUGGUA [U53C U55A]	0.34
GUCCUCUUUCACGUGCGCGUGAAAGAGAGAAGUGAACCAGAGAAACACACGUCGGGGUAUAUUACCUGGUA [U53C U55G]	0.306
GUCCUCUUUCACGUGCGCGUGAAAGAGAGAAGUGAACCAGAGAAACACACGUCGCGGUAUAUUACCUGGUA [U53C U55C]	0.329
GUCCUCUUUCACGUGCGCGUGAAAGAGAGAAGUGAACCAGAGAAACACACGGCGUGGUAUAUUACCUGGUA [U52G U53C]	1
GUCCUCUUUCACGUGCGCGUGAAAGAGAGAAGUGAACCAGAGAAACACACGUAGUGGUACAUUACCUGGUA [U53A U60C]	1.31
GUCCUCUUUCACGUGCGCGUGAAAGAGAGAAGUGAACCAGAGAAACACACGUAGUGGUAUAUUACCUAGUA [U53A G68A]	0.279
GUCCUCUUUCACGUGCGCGUGAAAGAGAGAAGUGAACCAGAGAAACACACGUAGUGGUAUAUUACCUUGUA [U53A G68U]	0.2
GUCCUCUUUCACGUGCGCGUGAAAGAGAGAAGUGAACCAGAGAAACACACGUAGUGGUAUAUUACCUCGUA [U53A G68C]	0.249
GUCCUCUUUCACGUGCGCGUGAAAGAGAGAAGUGAACCAGAGAAACACACGUCGUGGGAUAUUACCUGGUA [U53C U58G]	0.948
GUCCUCUUUCACGUGCGCGUGAAAGAGAGAAGUGAACCAGAGAAACACACGUAGUGGUAUAUGACCUGGUA [U53A U63G]	0.249
GUCCUCUUUCACGUGCGCGUGAAAGAGAGAAGUGAACCAGAGAAACACACGUAGUGGUAUAUAACCUGGUA [U53A U63A]	0.153
GUCCUCUUUCACGUGCGCGUGAAAGAGAGAAGUGAACCAGAGAAACACACGUCGUGGUAUAUUACCUAGUA [U53C G68A]	0.328
GUCCUCUUUCACGUGCGCGUGAAAGAGAGAAGUGAACCAGAGAAACACACGUCGUGGUAUAUUACCUUGUA [U53C G68U]	0.361
GUCCUCUUUCACGUGCGCGUGAAAGAGAGAAGUGAACCAGAGAAACACACGUCGUGGUAUAUUACCUCGUA [U53C G68C]	0.267
GUCCUCUUUCACGUGCGCGUGAAAGAGAGAAGUGAACCAGAGAAACACACGCUGUGGUAUAUUACUUGGUA [U52C C66U]	0.626
GUCCUCUUUCACGUGCGCGUGAAAGAGAGAAGUGAACCAGAGAAACACACGUAGUUGUAUAUUACCUGGUA [U53A G56U]	0.105
GUCCUCUUUCACGUGCGCGUGAAAGAGAGAAGUGAACCAGAGAAACACACGGUUUGGUAUAUUACCUGGUA [U52G G54U]	0.417
GUCCUCUUUCACGUGCGCGUGAAAGAGAGAAGUGAACCAGAGAAACACACGGUCUGGUAUAUUACCUGGUA [U52G G54C]	0.42
GUCCUCUUUCACGUGCGCGUGAAAGAGAGAAGUGAACCAGAGAAACACACGGUAUGGUAUAUUACCUGGUA [U52G G54A]	0.375
GUCCUCUUUCACGUGCGCGUGAAAGAGAGAAGUGAACCAGAGAAACACACGCUGUGGUAUAUUACCUGCUA [U52C G69C]	0.313
GUCCUCUUUCACGUGCGCGUGAAAGAGAGAAGUGAACCAGAGAAACACACGUCUUGGUAUAUUACCUGGUA [U53C G54U]	0.573
GUCCUCUUUCACGUGCGCGUGAAAGAGAGAAGUGAACCAGAGAAACACACGUCCUGGUAUAUUACCUGGUA [U53C G54C]	0.546
GUCCUCUUUCACGUGCGCGUGAAAGAGAGAAGUGAACCAGAGAAACACACGCUGUGGUAUAUUAGCUGGUA [U52C C65G]	0.426
GUCCUCUUUCACGUGCGCGUGAAAGAGAGAAGUGAACCAGAGAAACACACGGUGUGGUAAAUUACCUGGUA [U52G U60A]	0.4
GUCCUCUUUCACGUGCGCGUGAAAGAGAGAAGUGAACCAGAGAAACACACGGUGUGGUAGAUUACCUGGUA [U52G U60G]	0.298

Variant	self-cleavage
GUCCUCUUUCACGUGCGCGUGAAAGAGAGAAGUGAACCAGAGAAACACACGCUGUGGAAUAUUACCUGGUA [U52C U58A]	0.67
GUCCUCUUUCACGUGCGCGUGAAAGAGAGAAGUGAACCAGAGAAACACACGUCGUGGUAUAUUACCUGGUA [U53C]	0.97
GUCCUCUUUCACGUGCGCGUGAAAGAGAGAAGUGAACCAGAGAAACACACGUAGUGGUAUAUUACCUGGUA [U53A]	1.01
GUCCUCUUUCACGUGCGCGUGAAAGAGAGAAGUGAACCAGAGAAACACACGUCGUGGUAUAUUACCUGGUC [U53C A71C]	1.26
GUCCUCUUUCACGUGCGCGUGAAAGAGAGAAGUGAACCAGAGAAACACACGUCGUGGUAUAUUACCUGGUG [U53C A71G]	1.05
GUCCUCUUUCACGUGCGCGUGAAAGAGAGAAGUGAACCAGAGAAACACACGUAGUGCUAUAUUACCUGGUA [U53A G57C]	0.145
GUCCUCUUUCACGUGCGCGUGAAAGAGAGAAGUGAACCAGAGAAACACACGGUGUGGUAUAUUACCUAGUA [U52G G68A]	0.407
GUCCUCUUUCACGUGCGCGUGAAAGAGAGAAGUGAACCAGAGAAACACACGCUGUGGUAUAUUACCGGGUA [U52C U67G]	0.276
GUCCUCUUUCACGUGCGCGUGAAAGAGAGAAGUGAACCAGAGAAACACACGUAGAGGUAUAUUACCUGGUA [U53A U55A]	0.0855
GUCCUCUUUCACGUGCGCGUGAAAGAGAGAAGUGAACCAGAGAAACACACGCUGUGUUAUAUUACCUGGUA [U52C G57U]	0.207
GUCCUCUUUCACGUGCGCGUGAAAGAGAGAAGUGAACCAGAGAAACACACGUCGUGGUAUAUUGCCUGGUA [U53C A64G]	0.616
GUCCUCUUUCACGUGCGCGUGAAAGAGAGAAGUGAACCAGAGAAACACACGCAGUGGUAUAUUACCUGGUA [U52C U53A]	1.07
GUCCUCUUUCACGUGCGCGUGAAAGAGAGAAGUGAACCAGAGAAACACACGUCGUGGUAUAUUACGUGGUA [U53C C66G]	0.328
GUCCUCUUUCACGUGCGCGUGAAAGAGAGAAGUGAACCAGAGAAACACACGUACUGGUAUAUUACCUGGUA [U53A G54C]	0.472
GUCCUCUUUCACGUGCGCGUGAAAGAGAGAAGUGAACCAGAGAAACACACGUAUUGGUAUAUUACCUGGUA [U53A G54U]	0.609
GUCCUCUUUCACGUGCGCGUGAAAGAGAGAAGUGAACCAGAGAAACACACGUCGUGGUGUAUUACCUGGUA [U53C A59G]	0.303
GUCCUCUUUCACGUGCGCGUGAAAGAGAGAAGUGAACCAGAGAAACACACGCUAUGGUAUAUUACCUGGUA [U52C G54A]	0.568
GUCCUCUUUCACGUGCGCGUGAAAGAGAGAAGUGAACCAGAGAAACACACGGUGUGGUAUCUUACCUGGUA [U52G A61C]	0.147
GUCCUCUUUCACGUGCGCGUGAAAGAGAGAAGUGAACCAGAGAAACACACGUAGUGGUAUAUUAUCUGGUA [U53A C65U]	0.241
GUCCUCUUUCACGUGCGCGUGAAAGAGAGAAGUGAACCAGAGAAACACACGUAGUGGUAUAUUAGCUGGUA [U53A C65G]	0.28
GUCCUCUUUCACGUGCGCGUGAAAGAGAGAAGUGAACCAGAGAAACACACGUAGUGGUAUAUUAACUGGUA [U53A C65A]	0.901
GUCCUCUUUCACGUGCGCGUGAAAGAGAGAAGUGAACCAGAGAAACACACGGUGUGGUAUAUUACCUGAUA [U52G G69A]	0.263
GUCCUCUUUCACGUGCGCGUGAAAGAGAGAAGUGAACCAGAGAAACACACGCUGUGGUACAUUACCUGGUA [U52C U60C]	1.16
GUCCUCUUUCACGUGCGCGUGAAAGAGAGAAGUGAACCAGAGAAACACACGCUGUGGUAGAUUACCUGGUA [U52C U60G]	0.55
GUCCUCUUUCACGUGCGCGUGAAAGAGAGAAGUGAACCAGAGAAACACACGUAGUGGUAUACUACCUGGUA [U53A U62C]	0.231
GUCCUCUUUCACGUGCGCGUGAAAGAGAGAAGUGAACCAGAGAAACACACGUCGUGGUAUAUUACCUGUUA [U53C G69U]	0.378

Variant	self-cleavage
GUCCUCUUUCACGUGCGCGUGAAAGAGAGAAGUGAACCAGAGAAACACACGUAGUGGCAUAUUACCUGGUA [U53A U58C]	0.574
GUCCUCUUUCACGUGCGCGUGAAAGAGAGAAGUGAACCAGAGAAACACACGGUGUGGUAUAUUACGUGGUA [U52G C66G]	0.215
GUCCUCUUUCACGUGCGCGUGAAAGAGAGAAGUGAACCAGAGAAACACACGUAGUGGUAUAUUACCUGGUG [U53A A71G]	1.07
GUCCUCUUUCACGUGCGCGUGAAAGAGAGAAGUGAACCAGAGAAACACACGUAGUGGUAUAUUACCGGGUA [U53A U67G]	0.385
GUCCUCUUUCACGUGCGCGUGAAAGAGAGAAGUGAACCAGAGAAACACACGUAGUGGUAUAUUACCAGGUA [U53A U67A]	0.109
GUCCUCUUUCACGUGCGCGUGAAAGAGAGAAGUGAACCAGAGAAACACACGCUGUGGUAUAUUACCUUGUA [U52C G68U]	0.311
GUCCUCUUUCACGUGCGCGUGAAAGAGAGAAGUGAACCAGAGAAACACACGCUGUGGUAUAUUACCUAGUA [U52C G68A]	0.258
GUCCUCUUUCACGUGCGCGUGAAAGAGAGAAGUGAACCAGAGAAACACACGCUGUGGUAUAUUACCUCGUA [U52C G68C]	0.219
GUCCUCUUUCACGUGCGCGUGAAAGAGAGAAGUGAACCAGAGAAACACACGGUGUGGUAUAUUAACUGGUA [U52G C65A]	0.782
GUCCUCUUUCACGUGCGCGUGAAAGAGAGAAGUGAACCAGAGAAACACACGGUGUGGUAUAUUACCUGGUA [U52G]	0.862
GUCCUCUUUCACGUGCGCGUGAAAGAGAGAAGUGAACCAGAGAAACACACGGUGUGGUAUAUUACCUGGAA [U52G U70A]	0.638
GUCCUCUUUCACGUGCGCGUGAAAGAGAGAAGUGAACCAGAGAAACACACGUAGUGGUUUAUUACCUGGUA [U53A A59U]	0.129
GUCCUCUUUCACGUGCGCGUGAAAGAGAGAAGUGAACCAGAGAAACACACGUAGUGGUGUAUUACCUGGUA [U53A A59G]	0.177
GUCCUCUUUCACGUGCGCGUGAAAGAGAGAAGUGAACCAGAGAAACACACGUAGUGGUAUUUUACCUGGUA [U53A A61U]	0.248
GUCCUCUUUCACGUGCGCGUGAAAGAGAGAAGUGAACCAGAGAAACACACGUAGUGGUAUAUUACGUGGUA [U53A C66G]	0.247
GUCCUCUUUCACGUGCGCGUGAAAGAGAGAAGUGAACCAGAGAAACACACGUCGUAGUAUAUUACCUGGUA [U53C G56A]	0.211
GUCCUCUUUCACGUGCGCGUGAAAGAGAGAAGUGAACCAGAGAAACACACGUCGUCGUAUAUUACCUGGUA [U53C G56C]	0.149
GUCCUCUUUCACGUGCGCGUGAAAGAGAGAAGUGAACCAGAGAAACACACGCUGUAGUAUAUUACCUGGUA [U52C G56A]	0.211
GUCCUCUUUCACGUGCGCGUGAAAGAGAGAAGUGAACCAGAGAAACACACGCUGUGGUAUAGUACCUGGUA [U52C U62G]	0.0331
GUCCUCUUUCACGUGCGCGUGAAAGAGAGAAGUGAACCAGAGAAACACACGGUGUGGUAUAUUUCCUGGUA [U52G A64U]	0.183
GUCCUCUUUCACGUGCGCGUGAAAGAGAGAAGUGAACCAGAGAAACACACGUAGUGGUAUAUUACCUGAUA [U53A G69A]	0.484
GUCCUCUUUCACGUGCGCGUGAAAGAGAGAAGUGAACCAGAGAAACACACGUCGUGGUAUUUUACCUGGUA [U53C A61U]	0.377
GUCCUCUUUCACGUGCGCGUGAAAGAGAGAAGUGAACCAGAGAAACACACGUCGUGGUAUGUUACCUGGUA [U53C A61G]	0.254
GUCCUCUUUCACGUGCGCGUGAAAGAGAGAAGUGAACCAGAGAAACACACGGUGUAGUAUAUUACCUGGUA [U52G G56A]	0.19
